Test results reported in paper PMC10397247.

Key:
Assay in all cases: two-hybrid library CCNG1;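 note: natural log of median RNA to DNA barcode read ratio; higher means stronger binding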
4H4001-bN = target: T1, 4H4001-bN
T1 chain: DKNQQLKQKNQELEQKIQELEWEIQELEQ

4H1446-bN = target: T2, 4H1446-bN
T2 chain: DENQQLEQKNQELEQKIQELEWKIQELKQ

4H967-bN = target: T3, 4H967-bN
T3 chain: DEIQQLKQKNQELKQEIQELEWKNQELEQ

4H462-bN = target: T4, 4H462-bN
T4 chain: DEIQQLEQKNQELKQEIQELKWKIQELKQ

4H568-bN = target: T5, 4H568-bN
T5 chain: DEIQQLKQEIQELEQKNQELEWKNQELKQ

4H918-bN = target: T6, 4H918-bN
T6 chain: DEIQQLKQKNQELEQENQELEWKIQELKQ

4H1845-bN = target: T7, 4H1845-bN
T7 chain: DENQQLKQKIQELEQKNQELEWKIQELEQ

4H3606-bN = target: T8, 4H3606-bN
T8 chain: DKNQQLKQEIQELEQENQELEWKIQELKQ

4H883-bN = target: T9, 4H883-bN
T9 chain: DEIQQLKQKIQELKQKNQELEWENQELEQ

4H3189-bN = target: T10, 4H3189-bN
T10 chain: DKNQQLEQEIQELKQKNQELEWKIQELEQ

4H2610-bN = target: T11, 4H2610-bN
T11 chain: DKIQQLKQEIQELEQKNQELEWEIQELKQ

4H607-bN = target: T12, 4H607-bN
T12 chain: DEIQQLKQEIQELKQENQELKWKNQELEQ

4H2697-bN = target: T13, 4H2697-bN
T13 chain: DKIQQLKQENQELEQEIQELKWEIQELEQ

4H331-bN = target: T14, 4H331-bN
T14 chain: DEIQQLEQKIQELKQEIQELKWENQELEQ

4H687-bN = target: T15, 4H687-bN
T15 chain: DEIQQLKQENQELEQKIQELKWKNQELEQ

4H3843-bN = target: T16, 4H3843-bN
T16 chain: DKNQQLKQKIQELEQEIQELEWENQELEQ

4H2667-bN = target: T17, 4H2667-bN
T17 chain: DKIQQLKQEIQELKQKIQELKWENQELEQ

4H797-bN = target: T18, 4H797-bN
T18 chain: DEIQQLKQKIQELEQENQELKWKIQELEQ

4H370-bN = target: T19, 4H370-bN
T19 chain: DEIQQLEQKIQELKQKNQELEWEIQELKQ

4H2576-bN = target: T20, 4H2576-bN
T20 chain: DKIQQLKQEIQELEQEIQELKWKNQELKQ

4H72-bN = target: T21, 4H72-bN
T21 chain: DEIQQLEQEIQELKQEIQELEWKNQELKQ

4H1369-bN = target: T22, 4H1369-bN
T22 chain: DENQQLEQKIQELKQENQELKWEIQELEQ

4H264-bH = target: T23, 4H264-bH
T23 chain: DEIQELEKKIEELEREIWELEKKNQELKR

4H3782-bN = target: T24, 4H3782-bN
T24 chain: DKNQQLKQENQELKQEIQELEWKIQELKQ

4H1328-bN = target: T25, 4H1328-bN
T25 chain: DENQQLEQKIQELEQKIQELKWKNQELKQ

4H953-bN = target: T26, 4H953-bN
T26 chain: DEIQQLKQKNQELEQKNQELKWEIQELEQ

4H2673-bA = target: T27, 4H2673-bA
T27 chain: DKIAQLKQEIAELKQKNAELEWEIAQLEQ

4H3010-bA = target: T28, 4H3010-bA
T28 chain: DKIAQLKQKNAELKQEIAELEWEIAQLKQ

4H1158-bA = target: T29, 4H1158-bA
T29 chain: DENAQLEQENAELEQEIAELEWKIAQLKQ

4H855-bA = target: T30, 4H855-bA
T30 chain: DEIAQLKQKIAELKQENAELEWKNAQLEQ

4H2586-bA = target: T31, 4H2586-bA
T31 chain: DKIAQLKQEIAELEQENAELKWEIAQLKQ

4H968-bA = target: T32, 4H968-bA
T32 chain: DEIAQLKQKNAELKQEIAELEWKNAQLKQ

4H118-bA = target: T33, 4H118-bA
T33 chain: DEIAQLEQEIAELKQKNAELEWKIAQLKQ

4H2702-bA = target: T34, 4H2702-bA
T34 chain: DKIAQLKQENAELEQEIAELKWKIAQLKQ

4H683-bA = target: T35, 4H683-bA
T35 chain: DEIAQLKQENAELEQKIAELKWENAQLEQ

4H918-bA = target: T36, 4H918-bA
T36 chain: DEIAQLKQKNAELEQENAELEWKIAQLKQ

4H457-bA = target: T37, 4H457-bA
T37 chain: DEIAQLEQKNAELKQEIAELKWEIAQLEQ

4H1831-bA = target: T38, 4H1831-bA
T38 chain: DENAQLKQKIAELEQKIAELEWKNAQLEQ

O8-bH = target: T39, O8-bH
T39 chain: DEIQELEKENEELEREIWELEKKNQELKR

4H797-bA = target: T40, 4H797-bA
T40 chain: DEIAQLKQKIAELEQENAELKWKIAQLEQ

4H170-bA = target: T41, 4H170-bA
T41 chain: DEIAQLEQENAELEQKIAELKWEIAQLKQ

4H754-bA = target: T42, 4H754-bA
T42 chain: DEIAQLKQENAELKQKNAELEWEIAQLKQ

4H112-bA = target: T43, 4H112-bA
T43 chain: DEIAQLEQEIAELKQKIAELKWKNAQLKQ

4H346-bA = target: T44, 4H346-bA
T44 chain: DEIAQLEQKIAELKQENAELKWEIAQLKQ

4H3112-bA = target: T45, 4H3112-bA
T45 chain: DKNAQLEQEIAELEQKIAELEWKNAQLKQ

4H2627-bA = target: T46, 4H2627-bA
T46 chain: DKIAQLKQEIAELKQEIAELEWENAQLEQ

4H3427-bA = target: T47, 4H3427-bA
T47 chain: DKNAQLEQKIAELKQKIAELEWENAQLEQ

4H3907-bN = target: T48, 4H3907-bN
T48 chain: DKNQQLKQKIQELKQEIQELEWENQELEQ

4H953-bA = target: T49, 4H953-bA
T49 chain: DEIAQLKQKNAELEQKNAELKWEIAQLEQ

4H575-bA = target: T50, 4H575-bA
T50 chain: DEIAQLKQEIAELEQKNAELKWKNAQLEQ

4H4073-bA = target: T51, 4H4073-bA
T51 chain: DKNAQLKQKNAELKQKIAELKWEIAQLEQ

4H3926-bA = target: T52, 4H3926-bA
T52 chain: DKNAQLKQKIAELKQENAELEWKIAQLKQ

4H780-bA = target: T53, 4H780-bA
T53 chain: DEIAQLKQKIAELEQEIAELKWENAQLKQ

P9bH1 = target: T54, P9bH1
T54 chain: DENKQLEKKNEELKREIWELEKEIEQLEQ

P5bH1 = target: T55, P5bH1
T55 chain: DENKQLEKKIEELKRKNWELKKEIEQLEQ

P7bH1 = target: T56, P7bH1
T56 chain: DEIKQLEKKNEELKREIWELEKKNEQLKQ

P4bH1 = target: T57, P4bH1
T57 chain: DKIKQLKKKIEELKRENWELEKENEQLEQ

P8bH1 = target: T58, P8bH1
T58 chain: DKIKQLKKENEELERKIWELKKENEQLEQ

P2bH1 = target: T59, P2bH1
T59 chain: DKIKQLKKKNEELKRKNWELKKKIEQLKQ

P6bH1 = target: T60, P6bH1
T60 chain: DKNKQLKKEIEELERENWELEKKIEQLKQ

P1bH1 = target: T61, P1bH1
T61 chain: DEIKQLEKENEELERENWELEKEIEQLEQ

P12bH1 = target: T62, P12bH1
T62 chain: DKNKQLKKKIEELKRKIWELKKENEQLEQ

P3bH1 = target: T63, P3bH1
T63 chain: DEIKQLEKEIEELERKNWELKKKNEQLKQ

P11bH1 = target: T64, P11bH1
T64 chain: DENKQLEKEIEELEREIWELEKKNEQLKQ

4H4038-bN = target: T65, 4H4038-bN
T65 chain: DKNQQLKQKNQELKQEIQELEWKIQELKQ

4H3592-bN = target: T66, 4H3592-bN
T66 chain: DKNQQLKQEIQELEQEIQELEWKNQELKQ

4H1193-bN = target: T67, 4H1193-bN
T67 chain: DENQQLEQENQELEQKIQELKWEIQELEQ

4H1406-bN = target: T68, 4H1406-bN
T68 chain: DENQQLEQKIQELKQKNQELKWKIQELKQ

4H1387-bN = target: T69, 4H1387-bN
T69 chain: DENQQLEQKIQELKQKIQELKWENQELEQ

4H3601-bN = target: T70, 4H3601-bN
T70 chain: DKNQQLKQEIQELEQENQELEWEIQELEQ

DENQQLEQKIQELEQKIQELKWKNQELKQ [4H1328-bN]
interaction score (4H4001-bN): 1.19
interaction score (4H1446-bN): 0.527
interaction score (4H967-bN): 0.0544
interaction score (4H462-bN): -1.6
interaction score (4H568-bN): -0.31
interaction score (4H918-bN): -0.287
interaction score (4H1845-bN): -1.61
interaction score (4H3606-bN): -0.42
interaction score (4H883-bN): 0.625
interaction score (4H3189-bN): -0.232
interaction score (4H2610-bN): 0.84
interaction score (4H607-bN): -0.376
interaction score (4H2697-bN): -0.465
interaction score (4H331-bN): 1.8
interaction score (4H687-bN): 0.403
interaction score (4H3843-bN): 1.16
interaction score (4H2667-bN): 1.46
interaction score (4H797-bN): -0.686
interaction score (4H370-bN): -0.748
interaction score (4H2576-bN): 1.57
interaction score (4H72-bN): 0.764
interaction score (4H1369-bN): -0.223
interaction score (4H264-bH): 1.68
interaction score (4H3782-bN): -1.38
interaction score (4H1328-bN): 0.393
interaction score (4H953-bN): -0.513

DEIAQLEQEIAELKQKIAELKWKNAQLKQ [4H112-bA]
interaction score (4H2673-bA): 1.17
interaction score (4H3010-bA): 1.69
interaction score (4H1158-bA): 0.722
interaction score (4H855-bA): 0.496
interaction score (4H2586-bA): -0.329
interaction score (4H968-bA): 0.422
interaction score (4H118-bA): -1.17
interaction score (4H2702-bA): 0.586
interaction score (4H683-bA): 0.303
interaction score (4H918-bA): -1.12
interaction score (4H457-bA): 1.18
interaction score (4H1831-bA): -0.538
interaction score (O8-bH): -2.98
interaction score (4H797-bA): 0.104
interaction score (4H170-bA): 0.905
interaction score (4H754-bA): -0.627
interaction score (4H112-bA): 2.02
interaction score (4H346-bA): -0.491
interaction score (4H3112-bA): 1.9
interaction score (4H2627-bA): 1.89
interaction score (4H3427-bA): 1.34
interaction score (4H3907-bN): 1.94
interaction score (4H953-bA): 0.0535
interaction score (4H575-bA): -0.781
interaction score (4H4073-bA): 1.5
interaction score (4H3926-bA): 0.327
interaction score (4H780-bA): -0.588

DENKQLEKEIEELEREIWELEKKNEQLKQ [P11bH1]
interaction score (P9bH1): -0.076
interaction score (P5bH1): 1.1
interaction score (P7bH1): -0.507
interaction score (P4bH1): 1.12
interaction score (P8bH1): 0.239
interaction score (P2bH1): 1.25
interaction score (P6bH1): 0.725
interaction score (P1bH1): -2.02
interaction score (P12bH1): 0.0252
interaction score (P3bH1): -0.0263
interaction score (P11bH1): 0

DENQQLEQENQELEQKIQELKWEIQELEQ [4H1193-bN]
interaction score (4H4001-bN): -0.667
interaction score (4H1446-bN): -0.688
interaction score (4H4038-bN): 1.89
interaction score (4H967-bN): -0.916
interaction score (4H3592-bN): -0.683
interaction score (4H1193-bN): -1.79
interaction score (4H462-bN): 1.11
interaction score (4H568-bN): -0.982
interaction score (4H918-bN): -1.23
interaction score (4H1845-bN): -0.197
interaction score (4H3606-bN): -0.563
interaction score (4H883-bN): -0.365
interaction score (4H3189-bN): -0.76
interaction score (4H2610-bN): -2.18
interaction score (4H607-bN): -0.718
interaction score (4H2697-bN): -0.604
interaction score (4H331-bN): -1.06
interaction score (4H687-bN): -0.463
interaction score (4H3843-bN): -1.2
interaction score (4H2667-bN): -1.42
interaction score (4H797-bN): -0.958
interaction score (4H370-bN): -1.1
interaction score (4H1406-bN): -0.457
interaction score (4H2576-bN): -2.2
interaction score (4H1387-bN): -2.15
interaction score (4H72-bN): -2.07
interaction score (4H1369-bN): -0.409
interaction score (4H3907-bN): -0.628
interaction score (4H3782-bN): 1.24
interaction score (4H1328-bN): -0.785
interaction score (4H953-bN): -0.991
interaction score (4H3601-bN): -0.788
